Measured values reported in the DeepSol protein solubility set.

Experiment: soluble on expression in E. coli; label from the status in PepcDB or PDB records

Sequence	soluble on expression in E. coli
MSLSTDTAPAQTMHAGRLIARRLKASGIDTVFTLSGGHLFSIYDGCREEGIRLIDTRHEQTAAFAAEGWSKVTRVPGVAALTAGPGITNGMSAMAAAQQNQSPLVVLGGRAPALRWGMGSLQEIDHVPFVAPVARFAATAQSAENAGLLVDQALQAAVSAPSGVAFVDFPMDHAFSMSSDNGRPGALTELPAGPTPAGDALDRAAGLLSTAQRPVIMAGTNVWWGHAEAALLRLVEERHIPVLMNGMARGVVPADHRLAFSRARSKALGEADVALIVGVPMDFRLGFGGVFGSTTQLIVADRVEPAREHPRPVAAGLYGDLTATLSALAGSGGTDHQGWIEELATAETMARDLEKAELVDDRIPLHPMRVYAELAALLERDALVVIDAGDFGSYAGRMIDSYLPGCWLDSGPFGCLGSGPGYALAAKLARPQRQVVLLQGDGAFGFSGMEWDTLVRHNVAVVSVIGNNGIWGLEKHPMEALYGYSVVAELRPGTRYDEVVRALGGHGELVSVPAELRPALERAFASGLPAVVNVLTDPSVAYPRRSNEGHHHHHH	not soluble
MSLVNIEFYESVAASEAKFINDTLIPQFEAEYPGIHVTFVNVGSEDVSKDILAMEASGHVGPIVAGQDNLEIGQLIYSSHGNVLMNLTAMSPALMPSSLIPAASNLVQYEQKVFGGIYFFPFRGNVPLVFYNKTALSDAGISSPPANYTQLLQDAMTIHSKTGKDPIMIQGASTNGGHTGSSTATEMYQMMVQFGGNPLYLNDTGDIHAVEMLYNLSAYFSPDFKTGYWGSYRGLAVGNYSILDYQWPYVYNILTASPYNMTNSTLGVYPGPAGPVNANHVLGGDVLFIPKGATNIPSLEAFIRFLLGAQAQRETLLNLSWVAINQNAYRNLPKSESVIFTALEQAIATGVFLRNPTPWITEWQVIFCNDVFNPLFVTHSKTYSDIPSLLSYAHSQMYSYIAANYGQANATLYNNPNAYAPISEGHHHHHH	not soluble
MGSDKIHHHHHHMFVQARIDTTQDALVWPVVEFQGWVAFFGQRDSFDVYLNGDRVDNVHTVARPDVEEVLGAGWASIGWHVVCDIGQSARDNGHAIIFDVRVRTQTVAQGCFRYKDRLETTTQPLKIILHMPKTGGTSLRLALEEHRKNLFLLPLYHRDFSAIKSLSSLSVDRLDVAYGHVLYGIHEQIARPVTYMTVLRNPYDFVTSLYFFAKYVQRDHSILAAENIVDAVNTVNRPEFDNYYTRTIAGIQPEEPVTEEDLQRAIKNIDTHFSFIGLAERSRQSFRIFSEVFGLPLRYLKENVTPDLVEREFMNFRSVNEEIKKCINLDLILYKYAIKKFWYMDIE	not soluble
MKNNPLISIYMPTWNRQQLAIRAIKSVLRQDYSNWEMIIVDDCSTSWEQLQQYVTALNDPRITYIHNDINSGACAVRNQAIMLAQGEYITGIDDDDEWTPNRLSVFLAHKQQLVTHAFLYANDYVCQGEVYSQPASLPLYPKSPYSRRLFYKRNIIGNQVFTWAWRFKECLFDTELKAAQDYDIFLRMVVEYGEPWKVEEATQILHINHGEMQITSSPKKFSGYFHFYRKHKDKFDRASKKYQLFTLYQIRNKRMTWRTLLTLLSVRNGKRLADGIRGRLEHHHHHH	soluble
MSKLIITDNLEMLTEQGATRRRLLQAGLGACALLAMPAANAAYSRVYEKRVSLLNLHTGERVRTAYWERGKYIPEALRMIEKVLRDHRSGDIHRIDPRLLDLMQHLHHKTGNSKEFQVVSGYRSPATNAALSVQSHGVAKNSLHMQGKAIDIRLPGVPLHVLRRAAMSMHAGGVGYYPKSNFIHIDTGNVRYW	not soluble
MNGELYLKKGLLQLNKKLYDEALATLNKVIELDDDLASLTSAKCILGEYYFIHQNYEKSKEFLSWICDRQDELEEEFDDLLSEEINTASVLMELIEKYKL	not soluble
MSLSDAAAVTVVEQTEKRHKLIGYWHNFVNGAGCPIRLADMADAWDVIDIAFAENDRNSDGTVHFNLYSGDIYSDCPALDPTQFKQDMAALQAKGKKFVLSLGGAEGTITLNTDQDEANFVSSLTGLIAEWGFDGLDVDLESGSNLVHGSQIQARLGRALLQIEQNMGGDMYLTMAPEHPYVQGGYVAYSGIWGAYIPVINDTRSTLDLLHVQLYNNGGLPNPYLPSSAPEGSVDMMVAQSKMLIEGFELADGTQFAPLRDDQVAIGLPSGPSSANSGQAPTQNILNALDCLTKGTSCGTVKPAFNYPNYAGVMTWSINWDQHDGFNFSKPVGDKLTQMNAEGHHHHHH	soluble
MAHHHHHHMKLPYAKLEKHSRPVRCVHAEYGCTMLFCSVRCRQAGWSRFHFAGCPGAMMSDQRDAYDEFIHHDWEYRGVDYSDTVFLAFRFVCMAVTNIRLHRQSLELAYRPIAQLIKAPLSFFHFTYLFYREEADSTEKKGRGEKQIEKLRLIRWEAFRKFRATHMSTTENDTTDDFLATGMTLLGRILRFTQEECTLFTVARWSELLGAVLLNGQERSPPSNYDRLKELVRRLPCGESTMDAFEQEVQMAGNELQHLRQSSRGQGVYTVGCLFNHSCEPNLQVVYSESGDETLSVVALRDIEPGEELCISYIDESLSYPERQQELYEHYLFFCQCPKCEREAAAWEPIEPCEEVLSSAYTFSQLY	not soluble
MSLLNRLRAFRERGWREVDAPTYAQAWQRFGGSVATHPLVVEQLAEMAGIPVRYLGWESAGELVAAIPTWGRHLALSKDVLKRRGKKGLYDLGNAELILPVAGDARIALRHAGRYLSALHERNIVTLRPQTEQLAFARAPEDFSKKFRYNQRREVRLVEEAGGQVRQADSFAPAEFAAMYLELFQRRWGFPATGAERMAEVFERLRELLRGSVLLLNDQPIAVQVLYRAEAPGWLSVEYINGGVDPQTREFSPGSVLSYLNTQAAWEDARALGKPLRYSFGRADREYKDRWCHPSPVFQVEGHHHHHH	soluble
MGSDKIHHHHHHMTSKIDGLSVSSGLHRRYWNGMVADLWSVDCQSDAGGQYVSSDPRLFILLDAAGEDGADLSMAEGGGKRISGAMARAAHFIPAGLELSTAITGVKSLRHLDLHFDADILRHRLGEDAGLAALHQPRYLLDDPRLLALAELIAADVANPHPLHDLYGDGLVSALLIDVLNIRPTPTHQLPNRKRSKLAAWQLRRVCDFIEAHCLRTIRLEELAGLAGLSPTYFSHAFKASTGLSPHQWQMKARIETVKQRLRDPAVPLTVIAAETGFADAAHFARSFRRAVGLSPSEWRRVRLN	not soluble
MLVPRGSMAPIGSVVIVGRIILSGRGGPITAYSQQTRGLLGCIITSLTGRDKNQVEGEVQVVSTATQSFLATCVNGACWTVFHGAGSKTLAGPKGPITQMYTNVDQDLVGWPAPPGARSLTPCTCGSSDLYLVTRHADVIPVRRRGDTRGSLLSPRPISYLKGSSGGPLLCPSGHVVGIFRAAVCTRGVAKAVDFIPVESMETTMR	soluble
MGSDKIHHHHHHMAVINPFVVGGYVSPRYFCDRVAETENLIRNLINGRNVALVSTRRMGKTGLIRHCFYQPLIKEGYYTFFIDIYATSSLKEFVFALGKGIFEKLKPQGNKFIDRFFSIITSLRIGFKLDSITGEPILELGLGDIHAPETTLEEIFIYLEQADKPCIVAIDEFQQISSYPEKNLEAILRTKVQHCSNSNFVFAGSQRHIMMNIFNSPSRPFYQSVSMMHLGAIPLEVYKPFVKGLFEENGKKVTDQLVENVYTLFDGHTWYVQLILNELFILTDKKGICDVPMINLALNNIIATQDFTFQEIFSRLPEKQKEIMIAIAKEQKAKGVTSAAFIKKYRLTSASSVQSGLKGLLEKDMLTQESGGYQVYDRLFNIWLRRNY	not soluble
MGSDKIHHHHHHMSQTTVVNGVNVDQLMATIEQIKAKPEIAQFKFRATNQWMGGTHNQATIKDFYGACAEDDTRKPMVFDLDEPPVLLGENRGANPVEYLLVALSGCLTTSLVAHAAARGIALRGVKSRYEGDIDLRGFLGLSEEVPVGYREIRVFFSIDADLTDGQKEELIRMAQKYSPVYNTVAKPVPVAVLLDRG	not soluble
MSLSSWVSESSTETDKYGKSSEGKLYGKSRLSAHPGGIFEPVPYMTSAISLFEYIRERFGYGIEILHDVHERISPIQGVWFAKQVEKYRLFFLEDLFSPEDQHYFEMVRQQCATPIAMGELYVSPNDVIPMMKNKLIDFIRIHISDIGGITPARKIATFGELMGIKTAWHGPGDTSPVGHAANLALNLNSQNFGIQEAAIFGENSKEVFPGCPELRDGMMWSNGKPGLGIDINEELAKKFPFKERVWGGAWEGHHHHHH	not soluble
